Legend:
[1] = target: ChAdOx1 fiber knob protein (chimpanzee adenovirus Y25); assay: crystal structure; ChAdOx1 fiber knob, P1, 1.59 Å, four trimers in the asymmetric unit
[2] = target: coxsackie and adenovirus receptor (CAR), immobilised for SPR (UniProt P78310); assay: SPR; BIAcore T200; about 2000 RU of CAR, DSG2 and CD46 amine-coupled to a CM5 chip; fiber knob proteins flowed over, 1:2 serial dilutions; 25°C, PBS with 0.001% P20, 30 μl/min; 1:1 interaction model
[3] = target: ChAdOx1 hexon (chimpanzee adenovirus Y25); assay: cryo-EM structure
[4] = target: ChAdOx1 pIX (chimpanzee adenovirus Y25); assay: cryo-EM structure
[5] = target: ChAdOx1 penton protein (chimpanzee adenovirus Y25); assay: cryo-EM structure
CAR on CHO-CAR cells = CAR on CHO-CAR cells (UniProt P78310); assay: flow cytometry on cells; antibody binding inhibition: serial dilutions of fiber knob (0.00001 to 100 μg per 10^5 cells) on CHO-CAR or CHO-BC1 cells, 30 min on ice, then anti-CAR RmcB or anti-CD46 MEM-258 and Alexa Fluor 488 secondary antibody; IC50 by nonlinear regression
CAR on CHO-CAR cells, sequence (P78310 20-365): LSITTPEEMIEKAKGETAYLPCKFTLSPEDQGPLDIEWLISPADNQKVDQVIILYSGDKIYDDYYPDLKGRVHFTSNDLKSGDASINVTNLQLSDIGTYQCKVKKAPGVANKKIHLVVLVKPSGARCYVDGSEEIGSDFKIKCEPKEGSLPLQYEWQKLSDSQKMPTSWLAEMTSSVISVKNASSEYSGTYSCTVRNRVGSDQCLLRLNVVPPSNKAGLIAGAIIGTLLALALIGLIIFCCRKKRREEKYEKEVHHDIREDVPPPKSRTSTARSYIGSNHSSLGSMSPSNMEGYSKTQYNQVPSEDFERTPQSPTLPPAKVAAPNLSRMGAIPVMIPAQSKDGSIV

[6] = target: human adenovirus type 26 (HAdV-D26) viral vector (virus particle) (human adenovirus type 26); assay: SPR
[7] = target: human adenovirus type 5 (HAdV-C5) viral vector (virus particle) (human adenovirus type 5) (UniProt P04133); assay: SPR
[8] = target: AZD1222 vaccine preparation of ChAdOx1 (ChAdOx1 nCoV-19) (chimpanzee adenovirus Y25); assay: SPR

Question: With “ChAdOx1 fiber knob protein (domain or fragment)” as the substance, how does the stoichiometry N [1] read?
Answer: 3

Question: “ChAdOx1 fiber knob protein (domain or fragment; other documents disagree on this pair)” was tested. Which Kd [2] did it give?
Answer: 7.16 nM

Question: How did the stoichiometry N [3] turn out when ChAdOx1 hexon (natural protein) was run?
Answer: 3

Question: For ChAdOx1 pIX (natural protein), which stoichiometry N [4] is on record?
Answer: 4

Question: Which stoichiometry N [5] does the source give for “ChAdOx1 penton protein (natural protein)” here?
Answer: 5

Question: For “HAdV-B35 fiber knob protein (domain or fragment)”, which fold higher IC50 (reference not named: HAdV-C5 or ChAdOx1 fiber knob) (CAR on CHO-CAR cells) is on record?
Answer: > 1000 fold

Question: Which Kd [6] does the source give for “platelet factor 4 (PF4) (natural protein)” here?
Answer: 301 nM

Question: What about the Kd [7] of the same substance?
Answer: 789 nM

Question: What about the Kd [8] of the same substance?
Answer: 514 nM

Reference: article PMC8635433
